In US20230340127A1 (SANFORD BURNHAM PREBYS MEDICAL DISCOVERY INSTITUTE, published 2023):

B2: CUL4B (endogenous) (other, UniProt Q13620 1-913, looked up)
chain: MMSQSSGSGDGNDDEATTSKDGGFSSPSPSAAAAAQEVRSATDGNTSTTPPTSAKKRKLNSSSSSSSNSSNEREDFDSTSSSSSTPPLQPRDSASPSTSSFCLGVSVAASSHVPIQKKLRFEDTLEFVGFDAKMAEESSSSSSSSSPTAATSQQQQLKNKSILISSVASVHHANGLAKSSTTVSSFANSKPGSAKKLVIKNFKDKPKLPENYTDETWQKLKEAVEAIQNSTSIKYNLEELYQAVENLCSYKISANLYKQLRQICEDHIKAQIHQFREDSLDSVLFLKKIDRCWQNHCRQMIMIRSIFLFLDRTYVLQNSMLPSIWDMGLELFRAHIISDQKVQNKTIDGILLLIERERNGEAIDRSLLRSLLSMLSDLQIYQDSFEQRFLEETNRLYAAEGQKLMQEREVPEYLHHVNKRLEEEADRLITYLDQTTQKSLIATVEKQLLGEHLTAILQKGLNNLLDENRIQDLSLLYQLFSRVRGGVQVLLQQWIEYIKAFGSTIVINPEKDKTMVQELLDFKDKVDHIIDICFLKNEKFINAMKEAFETFINKRPNKPAELIAKYVDSKLRAGNKEATDEELEKMLDKIMIIFRFIYGKDVFEAFYKKDLAKRLLVGKSASVDAEKSMLSKLKHECGAAFTSKLEGMFKDMELSKDIMIQFKQYMQNQNVPGNIELTVNILTMGYWPTYVPMEVHLPPEMVKLQEIFKTFYLGKHSGRKLQWQSTLGHCVLKAEFKEGKKELQVSLFQTLVLLMFNEGEEFSLEEIKQATGIEDGELRRTLQSLACGKARVLAKNPKGKDIEDGDKFICNDDFKHKLFRIKINQIQMKETVEEQASTTERVFQDRQYQIDAAIVRIMKMRKTLSHNLLVSEVYNQLKFPVKPADLKKRIESLIDRDYMERDKENPNQYNYIA
notes: also called CRL4 component

Tests used:
[1] = target: T1, RBBP7 (endogenous) (UniProt Q16576 2-425); assay: co-IP of endogenous FBXO44 in MDA-MB-231 cells, immunoblot (FIG. 4A)
T1 construct: also called DCAF RBBP7
T1 sequence (Q16576 2-425 limits assumed): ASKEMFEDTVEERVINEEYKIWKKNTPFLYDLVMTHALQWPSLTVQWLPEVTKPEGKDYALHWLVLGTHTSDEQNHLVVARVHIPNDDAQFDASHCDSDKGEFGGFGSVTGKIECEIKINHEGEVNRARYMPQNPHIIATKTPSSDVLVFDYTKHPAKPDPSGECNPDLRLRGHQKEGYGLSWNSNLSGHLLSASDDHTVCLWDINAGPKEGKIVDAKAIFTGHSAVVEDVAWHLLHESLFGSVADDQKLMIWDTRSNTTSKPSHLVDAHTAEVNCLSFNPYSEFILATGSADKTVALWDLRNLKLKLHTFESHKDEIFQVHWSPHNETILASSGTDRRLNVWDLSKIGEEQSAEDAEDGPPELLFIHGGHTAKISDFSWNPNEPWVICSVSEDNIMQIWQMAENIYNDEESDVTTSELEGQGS

[2] = target: T2, RBBP4 (endogenous) (UniProt Q09028 2-425); assay: as above
T2 construct: also called DCAF RBBP4
T2 sequence (Q09028 2-425 limits assumed): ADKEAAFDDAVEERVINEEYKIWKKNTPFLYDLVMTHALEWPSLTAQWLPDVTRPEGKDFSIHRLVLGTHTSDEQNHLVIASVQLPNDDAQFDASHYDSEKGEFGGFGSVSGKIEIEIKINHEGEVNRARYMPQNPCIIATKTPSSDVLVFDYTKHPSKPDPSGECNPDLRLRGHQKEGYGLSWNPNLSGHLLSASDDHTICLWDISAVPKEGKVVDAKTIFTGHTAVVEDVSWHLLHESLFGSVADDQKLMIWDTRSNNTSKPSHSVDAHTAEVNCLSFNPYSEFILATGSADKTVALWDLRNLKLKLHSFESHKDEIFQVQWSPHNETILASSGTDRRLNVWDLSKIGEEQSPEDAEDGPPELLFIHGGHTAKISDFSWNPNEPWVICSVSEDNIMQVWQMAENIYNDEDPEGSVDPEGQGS

[3] = target: CUL1 (endogenous) (UniProt Q13616 1-776); assay: IP from chromatin fractions, immunoblot (FIG. 1F)
Chain of CUL1 (endogenous) (Q13616 whole entry): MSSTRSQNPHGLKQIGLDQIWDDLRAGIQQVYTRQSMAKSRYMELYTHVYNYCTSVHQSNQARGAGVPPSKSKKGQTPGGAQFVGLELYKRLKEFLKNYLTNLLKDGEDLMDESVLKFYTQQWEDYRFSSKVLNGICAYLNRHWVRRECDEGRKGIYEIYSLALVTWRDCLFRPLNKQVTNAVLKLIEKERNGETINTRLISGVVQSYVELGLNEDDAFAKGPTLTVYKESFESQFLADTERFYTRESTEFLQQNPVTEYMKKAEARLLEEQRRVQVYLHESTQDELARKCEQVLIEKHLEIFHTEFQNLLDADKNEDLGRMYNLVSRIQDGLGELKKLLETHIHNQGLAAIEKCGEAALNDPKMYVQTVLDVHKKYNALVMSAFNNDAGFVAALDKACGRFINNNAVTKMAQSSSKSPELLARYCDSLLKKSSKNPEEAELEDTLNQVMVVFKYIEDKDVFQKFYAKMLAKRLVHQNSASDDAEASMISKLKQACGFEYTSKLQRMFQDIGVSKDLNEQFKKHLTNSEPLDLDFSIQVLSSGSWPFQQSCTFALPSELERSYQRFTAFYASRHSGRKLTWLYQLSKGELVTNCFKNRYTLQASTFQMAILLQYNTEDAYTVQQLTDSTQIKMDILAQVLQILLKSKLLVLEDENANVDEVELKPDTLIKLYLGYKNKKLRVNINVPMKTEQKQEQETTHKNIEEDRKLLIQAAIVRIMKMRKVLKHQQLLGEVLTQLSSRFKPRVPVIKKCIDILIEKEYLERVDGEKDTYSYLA

[4] = target: B2; assay: co-IP of endogenous FBXO44 in MDA-MB-231 cells, immunoblot; CRL4 components named CUL4A/CUL4B in the legend of FIG. 4A
[5] = target: T3, GATAD2B (endogenous) (UniProt Q8WXI9 1-593); assay: co-IP of endogenous FBXO44, control vs SUV39H1 KD (FIG. 3I; its legend names GATAD2A)
T3 construct: also called Mi-2/NuRD component
T3 sequence (Q8WXI9 whole entry): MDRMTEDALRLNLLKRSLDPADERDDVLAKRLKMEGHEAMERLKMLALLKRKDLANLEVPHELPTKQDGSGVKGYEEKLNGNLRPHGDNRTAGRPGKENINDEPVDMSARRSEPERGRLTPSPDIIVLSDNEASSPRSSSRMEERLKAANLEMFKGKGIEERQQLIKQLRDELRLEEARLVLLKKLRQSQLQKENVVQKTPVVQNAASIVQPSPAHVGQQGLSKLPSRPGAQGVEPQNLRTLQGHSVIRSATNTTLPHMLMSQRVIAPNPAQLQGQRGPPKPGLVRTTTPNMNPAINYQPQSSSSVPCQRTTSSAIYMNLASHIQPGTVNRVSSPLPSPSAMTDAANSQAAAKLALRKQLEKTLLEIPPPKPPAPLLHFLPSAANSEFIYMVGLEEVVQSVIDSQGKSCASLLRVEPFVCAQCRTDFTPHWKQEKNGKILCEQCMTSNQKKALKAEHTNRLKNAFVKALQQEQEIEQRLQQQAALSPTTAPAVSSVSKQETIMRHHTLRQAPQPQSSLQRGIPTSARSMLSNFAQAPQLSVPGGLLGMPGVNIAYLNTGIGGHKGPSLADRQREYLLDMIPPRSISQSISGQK
Method: (§1) Immunoprecipitation or co-immunoprecipitation (IP or co-IP): for IP, cells were lysed in IP buffer (50 mM Tris-HCl [pH 7.4], 125 mM NaCl, 1 mM EDTA, 0.1% Triton X-100) with inhibitors (50 mM NaF, 1 mM PMSF, 1 mM Na₃VO₄, 1 μg/mL Aprotinin, 1 μg/mL Leupeptin, 1 μg/mL Pepstatin) followed by sonication and centrifugation to clear insoluble debris. Lysates were then incubated with protein G agarose beads and IgG antibody of the same species as the IP antibody for 2 hr at 4° C. to reduce non-specific binding. The cleared lysates were then incubated with IP antibody overnight at 4° C. Specifically, for Flag IP, 5 μg of anti-Flag antibody (Sigma-Aldrich no. F7425) was used for 2500 μg of protein lysate. For Myc IP, anti-Myc antibody (Cell Signaling Technology no. 2276) was used at 1:1000 dilution. For FBXO44 IP, 5 μL of anti-FBXO44 antibody (Sigma-Aldrich no. HPA003363) was used for 10⁶ cells. Beads were washed with IP buffer, boiled in 1×SDS gel loading buffer, and subjected to electrophoresis.
(§2) Next, to characterize FBXO44's molecular interactions with interactions with SUV39H1, CRL4RBBP4/7, and Mi-2/NuRD, Co-IP experiments were performed as described in example 3. For SUV39H1 IP, anti-SUV39H1 antibody (Millipore no. 05-615) was used at 1:100 dilution. For CUL4B IP, 2 μg of anti-CUL4B antibody (Proteintech no. 12916-1-AP) was used for 2500 μg of protein lysate. […]

[6] = target: Flag-Histone H3.1 (UniProt P68431 1-136); assay: co-IP of endogenous FBXO44 with Flag-Histone H3.1 or H3.3 (FIG. 5B)
Method: as §1

[7] = target: T4, DDB1 (endogenous) (UniProt Q16531 2-1140); assay: co-IP of endogenous CUL4B with DDB1 (anti-CUL4B antibody), control vs FBXO44 KD cells (FIG. 3G)
T4 construct: also called CRL4 component
T4 sequence (Q16531 2-1140 limits assumed): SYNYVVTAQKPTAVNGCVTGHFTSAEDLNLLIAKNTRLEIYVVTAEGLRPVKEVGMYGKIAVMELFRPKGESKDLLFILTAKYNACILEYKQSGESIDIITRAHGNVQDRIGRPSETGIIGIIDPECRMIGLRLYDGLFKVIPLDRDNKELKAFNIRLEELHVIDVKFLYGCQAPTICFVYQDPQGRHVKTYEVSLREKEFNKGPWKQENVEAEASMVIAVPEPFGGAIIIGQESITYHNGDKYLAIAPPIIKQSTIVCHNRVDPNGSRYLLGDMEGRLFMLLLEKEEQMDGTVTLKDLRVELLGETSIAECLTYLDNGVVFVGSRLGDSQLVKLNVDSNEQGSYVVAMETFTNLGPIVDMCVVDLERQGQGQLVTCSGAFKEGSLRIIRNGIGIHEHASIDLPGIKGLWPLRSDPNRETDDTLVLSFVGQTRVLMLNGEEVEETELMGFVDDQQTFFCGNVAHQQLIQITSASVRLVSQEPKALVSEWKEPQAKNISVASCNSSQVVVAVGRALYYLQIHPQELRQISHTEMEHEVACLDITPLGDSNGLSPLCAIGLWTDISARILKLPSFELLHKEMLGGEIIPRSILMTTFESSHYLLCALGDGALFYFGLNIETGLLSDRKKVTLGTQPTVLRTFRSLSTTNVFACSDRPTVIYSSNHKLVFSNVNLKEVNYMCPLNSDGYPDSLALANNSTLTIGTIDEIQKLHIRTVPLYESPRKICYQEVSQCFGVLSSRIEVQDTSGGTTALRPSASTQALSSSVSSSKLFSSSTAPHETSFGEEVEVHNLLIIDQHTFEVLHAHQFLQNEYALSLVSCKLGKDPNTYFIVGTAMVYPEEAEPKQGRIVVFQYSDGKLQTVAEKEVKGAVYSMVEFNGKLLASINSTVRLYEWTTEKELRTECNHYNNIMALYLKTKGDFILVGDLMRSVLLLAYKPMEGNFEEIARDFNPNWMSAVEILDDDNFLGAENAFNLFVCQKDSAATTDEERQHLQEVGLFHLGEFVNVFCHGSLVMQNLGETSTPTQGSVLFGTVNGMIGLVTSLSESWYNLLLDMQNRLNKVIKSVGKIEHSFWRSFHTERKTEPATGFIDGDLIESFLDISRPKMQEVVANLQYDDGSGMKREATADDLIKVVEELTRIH
Method: as §1, §2

Measured: binding result

B1: FBXO44 (endogenous F-box protein FBXO44) (other, human, UniProt Q9H4M3 1-255, looked up)
chain: MAVGNINELPENILLELFTHVPARQLLLNCRLVCSLWRDLIDLVTLWKRKCLREGFITEDWDQPVADWKIFYFLRSLHRNLLHNPCAEEGFEFWSLDVNGGDEWKVEDLSRDQRKEFPNDQVKKYFVTSYYTCLKSQVVDLKAEGYWEELMDTTRPDIEVKDWFAARPDCGSKYQLCVQLLSSAHAPLGTFQPDPATIQQKSDAKWREVSHTFSNYPPGVRYIWFQHGGVDTHYWAGWYGPRVTNSSITIGPPLP
notes: Endogenous protein in cell lysates or chromatin fractions; also called FBX044
not listed: [7]
binds: all other assays above

B2
binds: [7]
